According to patent US20120270800A1:

Biological target: KIX
Assay: fluorescence polarization

MLL WT
Kd: 89 nM
